Results on one substance are retold here after PMC3907796.

The assay deals with BD-G72(95-153) (UniProt P59103). The assay can be described thus: two-hybrid; β-galactosidase activity of AH109 transformants grown in SD/-2 broth at 30 °C, normalised to yeast with the AD and BD tags alone.
BD-G72(95-153), sequence (P59103 95-153): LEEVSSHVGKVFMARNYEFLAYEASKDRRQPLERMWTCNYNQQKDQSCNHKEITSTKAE

For “AD-DAO (D-amino acid oxidase N-terminally tagged with the activation domain) (from UniProt P14920 1-347) (enzyme)”, the β-galactosidase activity as percent of AD-DAO/BD-G72 worked out at 38% and the β-galactosidase activity relative to the BD/AD tag baseline turned out to be 1.81 fold.
